Assay results taken from patent publication US20210388087A1 (Chugai, published 2021).
Substitutions are numbered along the chain they refer to.

B1: GLS3000 H34G (antibody, name in Kabat numbering, V domains shown)
VH: QVQLVESGGGVVQPGRSLRLSCAASGFTFSNAWMHWVRQAPGKGLEWVAQIKAKSNNYATYYAESVKGRFTISRDDSKNSLYLQMNSLKTEDTAVYYCRYVHYGAYYGVDAWGQGTTVTVSS
VL: DIVMTQSPLSLPVTPGEPASISCRSSQSLVHSNRNTYLGWYQQKPGQAPRLLIYKVSNRFSGVPDRFSGSGSGTDFTLKISRVEAEDVGVYYCGQGTQVPYTFGQGTKLEIK
notes: one-arm IgG as m2
B2: GLS3000 H34Y (antibody, name in Kabat numbering, V domains shown)
VH: B1 VH
VL: B1 VL with G39Y
notes: one-arm IgG as m2
B3: GLS3000 H34W (antibody, name in Kabat numbering, V domains shown)
VH: B1 VH
VL: B1 VL with G39W
notes: one-arm IgG as m2
B4: GLS3000 K50T (antibody, name in Kabat numbering, V domains shown)
VH: B1 VH
VL: B1 VL with G39H, K55T
notes: one-arm IgG as m2
B5: GLS3000 H34L (antibody, name in Kabat numbering, V domains shown)
VH: B1 VH
VL: B1 VL with G39L
notes: one-arm IgG as m2
B6: GLS3000 L27bF (antibody, name in Kabat numbering, V domains shown)
VH: B1 VH
VL: B1 VL with L29F, G39H
notes: one-arm IgG as m2
B7: GLS3000 K50A (antibody, name in Kabat numbering, V domains shown)
VH: B1 VH
VL: B1 VL with G39H, K55A
notes: one-arm IgG as m2
B8: GLS3000 L27bE (antibody, name in Kabat numbering, V domains shown)
VH: B1 VH
VL: B1 VL with L29E, G39H
notes: one-arm IgG as m2
B9: GLS3000 K74T (antibody, name in Kabat numbering, V domains shown)
VH: B1 VH
VL: B1 VL with G39H, K79T
notes: one-arm IgG as m2
B10: GLS3000 K50Y (antibody, name in Kabat numbering, V domains shown)
VH: B1 VH
VL: B1 VL with G39H, K55Y
notes: one-arm IgG as m2
B11: GLS3000 H34K (antibody, name in Kabat numbering, V domains shown)
VH: B1 VH
VL: B1 VL with G39K
notes: one-arm IgG as m2
B12: GLS3000 L33M (antibody, name in Kabat numbering, V domains shown)
VH: B1 VH
VL: B1 VL with L38M, G39H
notes: one-arm IgG as m2
B13: GLS3000 K50Q (antibody, name in Kabat numbering, V domains shown)
VH: B1 VH
VL: B1 VL with G39H, K55Q
notes: one-arm IgG as m2
B14: GLS3000 H34R (antibody, name in Kabat numbering, V domains shown)
VH: B1 VH
VL: B1 VL with G39R
notes: one-arm IgG as m2
B15: GLS3000 L33A (antibody, name in Kabat numbering, V domains shown)
VH: B1 VH
VL: B1 VL with L38A, G39H
notes: one-arm IgG as m2
B16: GLS3000 K50G (antibody, name in Kabat numbering, V domains shown)
VH: B1 VH
VL: B1 VL with G39H, K55G
notes: one-arm IgG as m2
B17: GLS3000 H34T (antibody, name in Kabat numbering, V domains shown)
VH: B1 VH
VL: B1 VL with G39T
notes: one-arm IgG as m2
B18: GLS3000 K50D (antibody, name in Kabat numbering, V domains shown)
VH: B1 VH
VL: B1 VL with G39H, K55D
notes: one-arm IgG as m2
B19: GLS3000 L27bY (antibody, name in Kabat numbering, V domains shown)
VH: B1 VH
VL: B1 VL with L29Y, G39H
notes: one-arm IgG as m2
B20: GLS3000 K50R (antibody, name in Kabat numbering, V domains shown)
VH: B1 VH
VL: B1 VL with G39H, K55R
notes: one-arm IgG as m2
B21: GLS3000 K50S (antibody, name in Kabat numbering, V domains shown)
VH: B1 VH
VL: B1 VL with G39H, K55S
notes: one-arm IgG as m2
B22: GLS3000 H34Q (antibody, name in Kabat numbering, V domains shown)
VH: B1 VH
VL: B1 VL with G39Q
notes: one-arm IgG as m2
B23: GLS3000 L27bV (antibody, name in Kabat numbering, V domains shown)
VH: B1 VH
VL: B1 VL with L29V, G39H
notes: one-arm IgG as m2
B24: GLS3000 L27bW (antibody, name in Kabat numbering, V domains shown)
VH: B1 VH
VL: B1 VL with L29W, G39H
notes: one-arm IgG as m2
B25: GLS3000 K50L (antibody, name in Kabat numbering, V domains shown)
VH: B1 VH
VL: B1 VL with G39H, K55L
notes: one-arm IgG as m2
B26: GLS3000 L33I (antibody, name in Kabat numbering, V domains shown)
VH: B1 VH
VL: B1 VL with L38I, G39H
notes: one-arm IgG as m2
B27: GLS3000 L33V (antibody, name in Kabat numbering, V domains shown)
VH: B1 VH
VL: B1 VL with L38V, G39H
notes: one-arm IgG as m2
B28: GLS3000 L27bM (antibody, name in Kabat numbering, V domains shown)
VH: B1 VH
VL: B1 VL with L29M, G39H
notes: one-arm IgG as m2
B29: GLS3000 H34M (antibody, name in Kabat numbering, V domains shown)
VH: B1 VH
VL: B1 VL with G39M
notes: one-arm IgG as m2
B30: GLS3000 L33D (antibody, name in Kabat numbering, V domains shown)
VH: B1 VH
VL: B1 VL with L38D, G39H
notes: one-arm IgG as m2
B31: GLS3000 L27bP (antibody, name in Kabat numbering, V domains shown)
VH: B1 VH
VL: B1 VL with L29P, G39H
notes: one-arm IgG as m2
B32: GLS3000 K50E (antibody, name in Kabat numbering, V domains shown)
VH: B1 VH
VL: B1 VL with G39H, K55E
notes: one-arm IgG as m2
B33: GLS3000 H34N (antibody, name in Kabat numbering, V domains shown)
VH: B1 VH
VL: B1 VL with G39N
notes: one-arm IgG as m2
B34: GLS3000 L27bI (antibody, name in Kabat numbering, V domains shown)
VH: B1 VH
VL: B1 VL with L29I, G39H
notes: one-arm IgG as m2
B35: GLS3000 L33P (antibody, name in Kabat numbering, V domains shown)
VH: B1 VH
VL: B1 VL with L38P, G39H
notes: one-arm IgG as m2
B36: GLS3000 L33E (antibody, name in Kabat numbering, V domains shown)
VH: B1 VH
VL: B1 VL with L38E, G39H
notes: one-arm IgG as m2
B37: GLS3000 N28A (antibody, name in Kabat numbering, V domains shown)
VH: B1 VH
VL: B1 VL with N33A, G39H
notes: one-arm IgG as m2
B38: GLS3000 L27bD (antibody, name in Kabat numbering, V domains shown)
VH: B1 VH
VL: B1 VL with L29D, G39H
notes: one-arm IgG as m2
B39: GLS3000 K107E (antibody, name in Kabat numbering, V domains shown)
VH: B1 VH
VL: B1 VL with G39H, K112E
notes: one-arm IgG as m2
B40: GLS3000 H34S (antibody, name in Kabat numbering, V domains shown)
VH: B1 VH
VL: B1 VL with G39S
notes: one-arm IgG as m2
B41: GLS3000 H34P (antibody, name in Kabat numbering, V domains shown)
VH: B1 VH
VL: B1 VL with G39P
notes: one-arm IgG as m2
B42: GLS3000 H34V (antibody, name in Kabat numbering, V domains shown)
VH: B1 VH
VL: B1 VL with G39V
notes: one-arm IgG as m2
B43: GLS3000 H34I (antibody, name in Kabat numbering, V domains shown)
VH: B1 VH
VL: B1 VL with G39I
notes: one-arm IgG as m2
B44: GLS3000 K50P (antibody, name in Kabat numbering, V domains shown)
VH: B1 VH
VL: B1 VL with G39H, K55P
notes: one-arm IgG as m2
B45: GLS3000 L27bS (antibody, name in Kabat numbering, V domains shown)
VH: B1 VH
VL: B1 VL with L29S, G39H
notes: one-arm IgG as m2
B46: GLS3000 L33F (antibody, name in Kabat numbering, V domains shown)
VH: B1 VH
VL: B1 VL with L38F, G39H
notes: one-arm IgG as m2

These binders were tested against T1, CD3 epsilon homodimer protein (UniProt P07766 23-126) (assay: SPR Biacore T200, CD3e homodimer on chip, vs unaltered GLS3000 antibody).
T1 construct: also called CD3 (CD3 epsilon)
T1 sequence (P07766 23-126): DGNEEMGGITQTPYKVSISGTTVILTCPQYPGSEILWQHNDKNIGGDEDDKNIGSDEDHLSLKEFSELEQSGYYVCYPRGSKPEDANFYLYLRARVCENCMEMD
Protocol: An appropriate amount of CD3 epsilon homodimer protein was immobilized onto Sensor chip CM4 (GE Healthcare Japan Corp.) by the amine coupling method. Then, the antibody having an appropriate concentration was injected thereto as an analyte and allowed to interact with the CD3 epsilon homodimer protein on the sensor chip. Then, the sensor chip was regenerated by the injection of 10 mmol/L glycine-HCl (pH 1.5). The assay was conducted at 25 degrees C., and HBS-EP+(GE Healthcare Japan Corp.) was used as a running buffer. […] Each parameter was calculated using Biacore T200 Evaluation Software (GE Healthcare Japan Corp.).

Question: How did the “ratio of amounts bound (Z=Y/X)” value turn out when B1 was run?
Answer: 1.02

Question: With B2 as the binder, how does the “ratio of amounts bound (Z=Y/X)” value read?
Answer: 0.59

Question: With B3 as the binder, how does the “ratio of amounts bound (Z=Y/X)” value read?
Answer: 0.24

Question: Which “ratio of amounts bound (Z=Y/X)” value does the source give for B4 here?
Answer: 0.19

Question: Which “ratio of amounts bound (Z=Y/X)” value does the source give for B5 here?
Answer: 0.59

Question: With B6 as the binder, how does the “ratio of amounts bound (Z=Y/X)” value read?
Answer: 0.42

Question: Which “ratio of amounts bound (Z=Y/X)” value does the source give for B7 here?
Answer: 0.23

Question: How did the “ratio of amounts bound (Z=Y/X)” value turn out when B8 was run?
Answer: 0.17

Question: For B9, which “ratio of amounts bound (Z=Y/X)” value is on record?
Answer: 0.84

Question: How did the “ratio of amounts bound (Z=Y/X)” value turn out when B10 was run?
Answer: 0.24

Question: B11 was tested. Which “ratio of amounts bound (Z=Y/X)” value did it give?
Answer: 2.17

Question: B12 was tested. Which “ratio of amounts bound (Z=Y/X)” value did it give?
Answer: 0.93

Question: B13 was tested. Which “ratio of amounts bound (Z=Y/X)” value did it give?
Answer: 0.18

Question: B14 was tested. Which “ratio of amounts bound (Z=Y/X)” value did it give?
Answer: 0.2

Question: How did the “ratio of amounts bound (Z=Y/X)” value turn out when B15 was run?
Answer: 0.85

Question: How did the “ratio of amounts bound (Z=Y/X)” value turn out when B16 was run?
Answer: 0.16

Question: With B17 as the binder, how does the “ratio of amounts bound (Z=Y/X)” value read?
Answer: 0.89

Question: B18 was tested. Which “ratio of amounts bound (Z=Y/X)” value did it give?
Answer: 0.22

Question: How did the “ratio of amounts bound (Z=Y/X)” value turn out when B19 was run?
Answer: 0.25

Question: With B20 as the binder, how does the “ratio of amounts bound (Z=Y/X)” value read?
Answer: 0.5

Question: How did the “ratio of amounts bound (Z=Y/X)” value turn out when B21 was run?
Answer: 0.23

Question: How did the “ratio of amounts bound (Z=Y/X)” value turn out when B22 was run?
Answer: 0.25

Question: How did the “ratio of amounts bound (Z=Y/X)” value turn out when B23 was run?
Answer: 1.12

Question: B24 was tested. Which “ratio of amounts bound (Z=Y/X)” value did it give?
Answer: 0.26

Question: With B25 as the binder, how does the “ratio of amounts bound (Z=Y/X)” value read?
Answer: 0.24

Question: B26 was tested. Which “ratio of amounts bound (Z=Y/X)” value did it give?
Answer: 0.83

Question: For B27, which “ratio of amounts bound (Z=Y/X)” value is on record?
Answer: 1.05

Question: How did the “ratio of amounts bound (Z=Y/X)” value turn out when B28 was run?
Answer: 0.71

Question: How did the “ratio of amounts bound (Z=Y/X)” value turn out when B29 was run?
Answer: 0.35

Question: How did the “ratio of amounts bound (Z=Y/X)” value turn out when B30 was run?
Answer: 0.17

Question: Which “ratio of amounts bound (Z=Y/X)” value does the source give for B31 here?
Answer: 0.91

Question: How did the “ratio of amounts bound (Z=Y/X)” value turn out when B32 was run?
Answer: 0.24

Question: B33 was tested. Which “ratio of amounts bound (Z=Y/X)” value did it give?
Answer: 0.65

Question: With B34 as the binder, how does the “ratio of amounts bound (Z=Y/X)” value read?
Answer: 1.19

Question: With B35 as the binder, how does the “ratio of amounts bound (Z=Y/X)” value read?
Answer: 0.3

Question: Which “ratio of amounts bound (Z=Y/X)” value does the source give for B36 here?
Answer: 0.72

Question: With B37 as the binder, how does the “ratio of amounts bound (Z=Y/X)” value read?
Answer: 0.25

Question: How did the “ratio of amounts bound (Z=Y/X)” value turn out when B38 was run?
Answer: 0.17

Question: Which “ratio of amounts bound (Z=Y/X)” value does the source give for B39 here?
Answer: 0.94

Question: B40 was tested. Which “ratio of amounts bound (Z=Y/X)” value did it give?
Answer: 0.78

Question: Which “ratio of amounts bound (Z=Y/X)” value does the source give for B41 here?
Answer: 0.34

Question: For B42, which “ratio of amounts bound (Z=Y/X)” value is on record?
Answer: 0.85

Question: For B43, which “ratio of amounts bound (Z=Y/X)” value is on record?
Answer: 0.65

Question: Which “ratio of amounts bound (Z=Y/X)” value does the source give for B44 here?
Answer: 0.3

Question: B45 was tested. Which “ratio of amounts bound (Z=Y/X)” value did it give?
Answer: 0.71

Question: With B46 as the binder, how does the “ratio of amounts bound (Z=Y/X)” value read?
Answer: 0.78
